From US20090166224A1

What was measured:
[1] = target: APOLIPOPROTEIN A-I (human) (UniProt P02647); assay: human serum on M-LAC column, displacer fraction, extracted ion chromatogram of peptide …
[2] = target: CERULOPLASMIN (human) (UniProt P00450); assay: as above
[3] = target: Apolipoprotein A-I in fucosidase-treated serum (human) (UniProt P02647); assay: fucosidase-treated serum on M-LAC column, displacer fraction, LC-MS/MS; smaller rank = more abundant
[4] = target: Alpha-1-acid-glycoprotein in fucosidase-treated serum (human) (UniProt P02763); assay: as above
Alpha-1-acid-glycoprotein in fucosidase-treated serum (human), sequence (P02763 19-201 limits assumed): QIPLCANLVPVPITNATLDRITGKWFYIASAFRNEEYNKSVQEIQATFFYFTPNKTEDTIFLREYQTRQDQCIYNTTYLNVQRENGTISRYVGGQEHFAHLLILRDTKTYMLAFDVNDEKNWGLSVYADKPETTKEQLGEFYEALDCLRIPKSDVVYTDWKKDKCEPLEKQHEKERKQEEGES

[5] = target: Haptoglobin in fucosidase-treated serum (human) (UniProt P00738); assay: as above
Haptoglobin in fucosidase-treated serum (human), sequence (P00738 19-406 limits assumed): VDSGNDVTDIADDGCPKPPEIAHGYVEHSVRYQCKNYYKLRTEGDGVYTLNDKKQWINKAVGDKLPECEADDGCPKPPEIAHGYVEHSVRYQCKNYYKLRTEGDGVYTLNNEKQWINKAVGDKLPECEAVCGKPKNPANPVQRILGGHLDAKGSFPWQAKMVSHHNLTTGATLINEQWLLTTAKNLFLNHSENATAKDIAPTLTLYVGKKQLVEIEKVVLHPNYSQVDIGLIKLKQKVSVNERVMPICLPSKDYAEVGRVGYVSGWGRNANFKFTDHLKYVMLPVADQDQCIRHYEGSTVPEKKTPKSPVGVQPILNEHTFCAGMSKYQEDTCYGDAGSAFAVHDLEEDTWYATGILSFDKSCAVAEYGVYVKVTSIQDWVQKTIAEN

[6] = target: Ceruloplasmin in fucosidase-treated serum (human) (UniProt P00450); assay: as above
Ceruloplasmin in fucosidase-treated serum (human), sequence (P00450 20-1065 limits assumed): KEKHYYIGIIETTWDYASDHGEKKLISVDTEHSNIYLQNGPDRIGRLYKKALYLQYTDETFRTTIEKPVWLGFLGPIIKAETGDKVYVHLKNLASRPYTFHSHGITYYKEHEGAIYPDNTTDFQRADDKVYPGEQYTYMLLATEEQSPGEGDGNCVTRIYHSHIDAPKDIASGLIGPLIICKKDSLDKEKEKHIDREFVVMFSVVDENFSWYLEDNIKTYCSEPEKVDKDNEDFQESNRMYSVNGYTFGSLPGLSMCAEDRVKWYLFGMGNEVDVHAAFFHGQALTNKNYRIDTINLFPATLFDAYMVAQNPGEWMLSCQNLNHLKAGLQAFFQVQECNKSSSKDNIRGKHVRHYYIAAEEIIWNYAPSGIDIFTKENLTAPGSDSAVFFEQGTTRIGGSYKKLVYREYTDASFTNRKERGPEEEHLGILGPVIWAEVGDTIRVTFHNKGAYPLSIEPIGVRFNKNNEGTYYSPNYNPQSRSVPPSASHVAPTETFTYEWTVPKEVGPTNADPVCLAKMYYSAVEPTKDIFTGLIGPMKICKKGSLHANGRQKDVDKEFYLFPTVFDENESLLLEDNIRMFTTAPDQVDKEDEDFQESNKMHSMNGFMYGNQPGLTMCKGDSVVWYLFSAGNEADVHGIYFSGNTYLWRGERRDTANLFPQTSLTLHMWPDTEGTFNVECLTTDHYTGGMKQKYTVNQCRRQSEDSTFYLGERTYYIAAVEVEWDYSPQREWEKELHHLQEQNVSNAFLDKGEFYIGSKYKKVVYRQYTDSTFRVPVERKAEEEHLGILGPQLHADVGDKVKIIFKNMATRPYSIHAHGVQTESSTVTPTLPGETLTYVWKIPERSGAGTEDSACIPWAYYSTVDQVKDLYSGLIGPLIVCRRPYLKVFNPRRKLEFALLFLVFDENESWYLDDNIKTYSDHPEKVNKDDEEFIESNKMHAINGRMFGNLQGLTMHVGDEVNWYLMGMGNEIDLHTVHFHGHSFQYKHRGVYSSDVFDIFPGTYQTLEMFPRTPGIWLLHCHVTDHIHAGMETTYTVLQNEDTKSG

[7] = target: Haptoglobin in neuraminidase-treated serum (human) (UniProt P00738); assay: neuraminidase-treated serum on M-LAC column, displacer fraction, LC-MS/MS; smaller rank = more abundant
Haptoglobin in neuraminidase-treated serum (human), sequence (P00738 19-406 limits assumed): as the sequence (P00738 19-406 limits assumed) above

[8] = target: HAPTOGLOBIN-2 (human) (UniProt P00738); assay: human serum on Con A/WGA/Jacalin column, lectin-specific displacer fraction, LC-MS/MS; grade = SEQUEST rank group (+ = ranks 1-5, ++++ = 16-20)
HAPTOGLOBIN-2 (human), sequence (P00738 19-406 limits assumed): as above

[9] = target: … ZONE PROTEIN (human) (UniProt P20742); assay: human serum on M-LAC column, displacer fraction, extracted ion chromatogram of peptide … (so in the source)
[10] = target: SERO… (human) (UniProt P02787); assay: untreated sample on M-LAC column, displacer fraction, peak area of peptide …
SERO… (human), sequence (P02787 20-698 limits assumed): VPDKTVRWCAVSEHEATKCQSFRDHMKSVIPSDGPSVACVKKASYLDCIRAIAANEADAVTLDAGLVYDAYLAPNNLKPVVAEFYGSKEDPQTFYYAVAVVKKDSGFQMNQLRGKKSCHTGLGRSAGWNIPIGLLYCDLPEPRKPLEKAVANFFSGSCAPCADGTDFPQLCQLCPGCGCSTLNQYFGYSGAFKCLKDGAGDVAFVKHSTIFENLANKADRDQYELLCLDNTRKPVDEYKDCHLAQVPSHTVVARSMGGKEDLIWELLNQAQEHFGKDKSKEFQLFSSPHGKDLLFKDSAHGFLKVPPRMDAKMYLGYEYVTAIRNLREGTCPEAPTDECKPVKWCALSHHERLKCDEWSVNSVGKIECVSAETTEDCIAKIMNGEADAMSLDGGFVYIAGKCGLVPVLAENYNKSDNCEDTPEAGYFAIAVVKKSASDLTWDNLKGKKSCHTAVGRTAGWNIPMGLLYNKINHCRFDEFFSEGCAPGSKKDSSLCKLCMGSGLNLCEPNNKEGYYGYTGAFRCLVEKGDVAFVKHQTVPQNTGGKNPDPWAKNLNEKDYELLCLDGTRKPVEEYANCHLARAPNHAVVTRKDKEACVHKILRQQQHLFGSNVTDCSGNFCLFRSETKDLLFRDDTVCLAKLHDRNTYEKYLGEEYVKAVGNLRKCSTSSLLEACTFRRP

[11] = target: Alpha-1-acid-glycoprotein (human) (UniProt P02763); assay: as above
Alpha-1-acid-glycoprotein (human), sequence (P02763 19-201 limits assumed): as the sequence (P02763 19-201 limits assumed) above

[12] = target: HAPTOGLOBIN-2 (human) (UniProt P00738); assay: as above
[13] = target: ALPHA-2-HS-GLYCOPROTEIN (human) (UniProt P02765); assay: as above
UniProt P02765, sequence (P02765 19-300 limits assumed, chain 1 of 2): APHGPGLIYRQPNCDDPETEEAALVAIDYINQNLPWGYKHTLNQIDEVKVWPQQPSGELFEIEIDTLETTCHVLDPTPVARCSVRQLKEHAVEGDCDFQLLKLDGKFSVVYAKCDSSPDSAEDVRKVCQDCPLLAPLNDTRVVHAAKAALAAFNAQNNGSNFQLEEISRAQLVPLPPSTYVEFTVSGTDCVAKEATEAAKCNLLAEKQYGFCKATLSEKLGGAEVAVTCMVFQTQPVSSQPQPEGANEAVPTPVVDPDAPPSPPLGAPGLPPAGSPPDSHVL
UniProt P02765, sequence (P02765 341-367 limits assumed, chain 2 of 2): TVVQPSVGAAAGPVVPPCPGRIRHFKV

[14] = target: Beta-2-glycoprotein (human) (UniProt P02749); assay: as above
Beta-2-glycoprotein (human), sequence (P02749 20-345 limits assumed): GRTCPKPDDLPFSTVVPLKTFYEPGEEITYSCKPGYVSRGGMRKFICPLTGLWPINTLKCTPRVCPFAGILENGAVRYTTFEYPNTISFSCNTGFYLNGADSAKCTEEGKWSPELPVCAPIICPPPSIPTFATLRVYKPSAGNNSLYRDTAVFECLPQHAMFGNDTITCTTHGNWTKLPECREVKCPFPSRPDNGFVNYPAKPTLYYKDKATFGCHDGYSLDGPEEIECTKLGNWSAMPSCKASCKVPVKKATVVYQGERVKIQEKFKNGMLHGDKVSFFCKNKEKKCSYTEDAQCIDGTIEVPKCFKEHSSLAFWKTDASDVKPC

[15] = target: SERO… (human) (UniProt P02787); assay: human serum on M-LAC column, displacer fraction, LC-MS/MS; smaller rank = more abundant
[16] = target: Alpha-1-acid-glycoprotein (human) (UniProt P02763); assay: as above
[17] = target: HAPTOGLOBIN-2 (human) (UniProt P00738); assay: as above
[18] = target: ALPHA-2-HS-GLYCOPROTEIN (human) (UniProt P02765); assay: as above
[19] = target: Beta-2-glycoprotein (human) (UniProt P02749); assay: as above
[20] = target: APOLIPOPROTEIN A-I (human) (UniProt P02647); assay: as above
[21] = target: CERULOPLASMIN (human) (UniProt P00450); assay: as above
[22] = target: Haptoglobin in neuraminidase-treated serum (human) (UniProt P00738); assay: neuraminidized sample on M-LAC column, displacer fraction, peak area of peptide …
[23] = target: Alpha-1-acid-glycoprotein in neuraminidase-treated serum (human) (UniProt P02763); assay: as above
Alpha-1-acid-glycoprotein in neuraminidase-treated serum (human), sequence (P02763 19-201 limits assumed): as the sequence (P02763 19-201 limits assumed) above

[24] = target: asialotransferrin (human) (UniProt P02787); assay: as above
asialotransferrin (human), sequence (P02787 20-698 limits assumed): as the sequence (P02787 20-698 limits assumed) above

[25] = target: Beta-2-glycoprotein in neuraminidase-treated serum (human) (UniProt P02749); assay: as above
Beta-2-glycoprotein in neuraminidase-treated serum (human), sequence (P02749 20-345 limits assumed): as the sequence (P02749 20-345 limits assumed) above

[26] = target: Alpha-2HS-glycoprotein in neuraminidase-treated serum (human) (UniProt P02765); assay: as above
Alpha-2HS-glycoprotein in neuraminidase-treated serum (human), sequence (P02765 19-300 limits assumed, chain 1 of 2): as the sequence (P02765 19-300 limits assumed, chain 1 of 2) above

[27] = target: Haptoglobin in neuraminidase-treated serum (human) (UniProt P00738); assay: neuraminidase-treated serum on M-LAC column, displacer fraction, extracted ion chromatogram of peptide …
[28] = target: Alpha-1-acid-glycoprotein in neuraminidase-treated serum (human) (UniProt P02763); assay: as above
[29] = target: Beta-2-glycoprotein in neuraminidase-treated serum (human) (UniProt P02749); assay: as above
[30] = target: Alpha-2HS-glycoprotein in neuraminidase-treated serum (human) (UniProt P02765); assay: as above
[31] = target: Apolipoprotein A-I in fucosidase-treated serum (human) (UniProt P02647); assay: fucosidase-treated serum on M-LAC column, displacer fraction, extracted ion chromatogram of peptide …
[32] = target: Alpha-1-acid-glycoprotein in fucosidase-treated serum (human) (UniProt P02763); assay: as above
[33] = target: Haptoglobin in fucosidase-treated serum (human) (UniProt P00738); assay: as above
[34] = target: Ceruloplasmin in fucosidase-treated serum (human) (UniProt P00450); assay: as above

UniProt P00450, sequence (P00450 20-1065 limits assumed): as the sequence (P00450 20-1065 limits assumed) above
Apolipoprotein A-I in fucosidase-treated serum (human), sequence (P02647 25-267 limits assumed): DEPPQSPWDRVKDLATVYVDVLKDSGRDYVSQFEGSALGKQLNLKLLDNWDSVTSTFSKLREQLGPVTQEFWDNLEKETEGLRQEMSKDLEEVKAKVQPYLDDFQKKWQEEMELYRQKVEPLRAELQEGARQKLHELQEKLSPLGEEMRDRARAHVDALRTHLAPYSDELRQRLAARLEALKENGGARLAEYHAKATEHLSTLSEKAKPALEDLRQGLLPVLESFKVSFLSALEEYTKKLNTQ
UniProt P02647, sequence (P02647 25-267 limits assumed): as above

Substance: Jacalin lectin, agarose-bound (from UniProt P18670 1-133; P18671 1-20)
- peptide peak area in displacer fraction [1]: 4e+07 counts
- peptide peak area in displacer fraction [2]: 2e+06 counts
- SEQUEST rank in displacer fraction [3]: 5
- SEQUEST rank in displacer fraction [4]: 19
- SEQUEST rank in displacer fraction [5]: 7
- SEQUEST rank in displacer fraction [6]: 6
- SEQUEST rank in displacer fraction [7]: 9
- SEQUEST ranking (relative abundance in the Jacalin displacement fraction) [8]: 11 to 15 rank
- peptide peak area in displacer fraction [9]: 0 counts
- peptide peak area in displacer fraction [10]: 20
- peptide peak area in displacer fraction [11]: 9.7
- peptide peak area in displacer fraction [12]: 10.1
- peptide peak area in displacer fraction [13]: 4
- peptide peak area in displacer fraction [14]: 2.6
- SEQUEST rank in displacer fraction [15]: 2
- SEQUEST rank in displacer fraction [16]: 21
- SEQUEST rank in displacer fraction [17]: 9
- SEQUEST rank in displacer fraction [18]: 14
- SEQUEST rank in displacer fraction [19]: 20
- SEQUEST rank in displacer fraction [20]: 4
- SEQUEST rank in displacer fraction [21]: 24
- peptide peak area in displacer fraction [22]: 12.6
- peptide peak area in displacer fraction [23]: 12.3
- peptide peak area in displacer fraction [24]: 28
- peptide peak area in displacer fraction [25]: 3.8
- peptide peak area in displacer fraction [26]: 7.4
- peptide peak area in displacer fraction [27]: 1.3e+07 counts
- peptide peak area in displacer fraction [28]: 1.2e+07 counts
- peptide peak area in displacer fraction [29]: 3.8e+06 counts
- peptide peak area in displacer fraction [30]: 7.4e+06 counts
- peptide peak area in displacer fraction [31]: 4.3e+07 counts
- peptide peak area in displacer fraction [32]: 1.7e+07 counts
- peptide peak area in displacer fraction [33]: 2.2e+07 counts
- peptide peak area in displacer fraction [34]: 6.2e+06 counts

Substance: wheat germ agglutinin (WGA), agarose-bound (from UniProt P10968 27-197)
- peptide peak area in displacer fraction [1]: 6e+07 counts
- peptide peak area in displacer fraction [2]: 9.1e+06 counts
- SEQUEST rank in displacer fraction [3]: 24
- SEQUEST rank in displacer fraction [4]: 9
- SEQUEST rank in displacer fraction [5]: 2
- SEQUEST rank in displacer fraction [6]: 28
- SEQUEST rank in displacer fraction [7]: 2
- SEQUEST ranking (relative abundance in the WGA displacement fraction) [8]: 1 to 5 rank
- peptide peak area in displacer fraction [9]: 1.1e+07 counts
- peptide peak area in displacer fraction [10]: 8.1
- peptide peak area in displacer fraction [11]: 129
- peptide peak area in displacer fraction [12]: 236
- peptide peak area in displacer fraction [13]: 1.7
- peptide peak area in displacer fraction [14]: 1.8
- SEQUEST rank in displacer fraction [15]: 19
- SEQUEST rank in displacer fraction [16]: 7
- SEQUEST rank in displacer fraction [17]: 4
- SEQUEST rank in displacer fraction [18]: 81
- SEQUEST rank in displacer fraction [19]: 52
- SEQUEST rank in displacer fraction [20]: 10
- SEQUEST rank in displacer fraction [21]: 8
- peptide peak area in displacer fraction [22]: 163
- peptide peak area in displacer fraction [23]: 0
- peptide peak area in displacer fraction [24]: 1.6
- peptide peak area in displacer fraction [25]: 0
- peptide peak area in displacer fraction [26]: 0.9
- peptide peak area in displacer fraction [27]: 1.63e+08 counts
- peptide peak area in displacer fraction [28]: 0 counts
- peptide peak area in displacer fraction [29]: 0 counts
- peptide peak area in displacer fraction [30]: 900000 counts
- peptide peak area in displacer fraction [31]: 1.6e+07 counts
- peptide peak area in displacer fraction [32]: 5e+07 counts
- peptide peak area in displacer fraction [33]: 8.2e+07 counts
- peptide peak area in displacer fraction [34]: 1.1e+07 counts

Substance: Concanavalin A (Con A), agarose-bound (from UniProt P02866 30-281)
- peptide peak area in displacer fraction [1]: 1.2e+07 counts
- peptide peak area in displacer fraction [2]: 7.8e+06 counts
- SEQUEST rank in displacer fraction [3]: 12
- SEQUEST rank in displacer fraction [4]: 38
- SEQUEST rank in displacer fraction [5]: 5
- SEQUEST rank in displacer fraction [6]: 8
- SEQUEST rank in displacer fraction [7]: 7
- SEQUEST ranking (relative abundance in the Con A displacement fraction) [8]: 6 to 10 rank
- peptide peak area in displacer fraction [9]: 6.6e+06 counts
- peptide peak area in displacer fraction [10]: 23
- peptide peak area in displacer fraction [11]: 9.2
- peptide peak area in displacer fraction [12]: 39.3
- peptide peak area in displacer fraction [13]: 2.6
- peptide peak area in displacer fraction [14]: 3.5
- SEQUEST rank in displacer fraction [15]: 2
- SEQUEST rank in displacer fraction [16]: 33
- SEQUEST rank in displacer fraction [17]: 7
- SEQUEST rank in displacer fraction [18]: 32
- SEQUEST rank in displacer fraction [19]: 20
- SEQUEST rank in displacer fraction [20]: 19
- SEQUEST rank in displacer fraction [21]: 14
- peptide peak area in displacer fraction [22]: 46.9
- peptide peak area in displacer fraction [23]: 10.7
- peptide peak area in displacer fraction [24]: 36
- peptide peak area in displacer fraction [25]: 8.4
- peptide peak area in displacer fraction [26]: 2.6
- peptide peak area in displacer fraction [27]: 4.7e+07 counts
- peptide peak area in displacer fraction [28]: 1.1e+07 counts
- peptide peak area in displacer fraction [29]: 8.4e+06 counts
- peptide peak area in displacer fraction [30]: 2.6e+06 counts
- peptide peak area in displacer fraction [31]: 1.2e+07 counts
- peptide peak area in displacer fraction [32]: 1e+07 counts
- peptide peak area in displacer fraction [33]: 5.1e+07 counts
- peptide peak area in displacer fraction [34]: 9.8e+06 counts
